Data published in patent US7977317B2, “Compositions and methods for modulating blood-brain barrier transport” (Raptor Pharmaceutical Inc., priority 2001, dated 2011).

Legend:
LRP = LRP (Homo sapiens, UniProt Q07954); details: Tables 1-3; cited from earlier work
Megalin = Megalin (Homo sapiens, UniProt P98164); details: Tables 1-3; cited from earlier work
LDL-R = LDL-R (Homo sapiens, UniProt P01130); details: Tables 1-3; cited from earlier work
LR11 = LR11 (Homo sapiens, UniProt Q92673); details: Tables 1-3; cited from earlier work
ER-2 = target: T1, ER-2 (Homo sapiens, UniProt Q14114); details: Tables 1-3; cited from earlier work
T1 sequence (Q14114 33-963): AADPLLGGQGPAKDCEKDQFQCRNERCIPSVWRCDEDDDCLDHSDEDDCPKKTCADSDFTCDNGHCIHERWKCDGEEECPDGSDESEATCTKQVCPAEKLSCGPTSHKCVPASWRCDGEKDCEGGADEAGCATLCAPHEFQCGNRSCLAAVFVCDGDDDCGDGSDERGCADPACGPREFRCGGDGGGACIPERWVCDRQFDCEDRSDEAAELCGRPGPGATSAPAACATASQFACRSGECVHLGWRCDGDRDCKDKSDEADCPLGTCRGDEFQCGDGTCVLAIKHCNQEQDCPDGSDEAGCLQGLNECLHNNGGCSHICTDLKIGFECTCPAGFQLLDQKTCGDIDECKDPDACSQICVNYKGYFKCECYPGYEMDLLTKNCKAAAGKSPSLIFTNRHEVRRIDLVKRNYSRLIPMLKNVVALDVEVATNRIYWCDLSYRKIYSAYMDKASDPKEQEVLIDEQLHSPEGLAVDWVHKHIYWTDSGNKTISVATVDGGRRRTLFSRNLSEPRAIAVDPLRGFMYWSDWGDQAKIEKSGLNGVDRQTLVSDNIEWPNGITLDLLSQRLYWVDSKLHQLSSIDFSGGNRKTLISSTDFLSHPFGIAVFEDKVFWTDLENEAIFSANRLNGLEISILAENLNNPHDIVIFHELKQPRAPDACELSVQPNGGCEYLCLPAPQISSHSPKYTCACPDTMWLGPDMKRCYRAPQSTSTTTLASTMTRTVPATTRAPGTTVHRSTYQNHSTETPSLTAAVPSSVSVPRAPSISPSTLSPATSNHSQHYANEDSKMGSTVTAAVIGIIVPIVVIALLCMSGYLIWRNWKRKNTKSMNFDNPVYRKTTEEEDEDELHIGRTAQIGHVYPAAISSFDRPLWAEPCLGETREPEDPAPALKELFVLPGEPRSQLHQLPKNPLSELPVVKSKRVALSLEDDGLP

VLDL-R = VLDL-R (Homo sapiens, UniProt P98155); details: Tables 1-3; cited from earlier work
BBCEC monolayers = assay: Transcytosis across BBCEC monolayers (in vitro BBB model); assay type: cell-based, bovine
Source text: FIG. 10 assesses the ability of several agents to interfere with p97 transyctosis. FIG. 10a, transcytosis of I125-P97 was compared in the presence of cold p97 (5 micromolar), Lf (5 micromolar), and Tf (5 micromolar). […] FIG. 10c, RAP, a known poly-peptide inhibitor of the LDL-Receptor family was applied to the cells (25 micrograms/ml).
FIG. 11 examines the accumulation and transcytosis of p97. FIG. 11a, of [^125I]-p97, [^125I]-BSA and [^125I]-holo-transferrin one hour after i.v. injection. The radioactivity in brain was compared between the three compounds. (n=3); FIG. 11b, Accumulation of p97 and transferrin into the mouse brain parenchyma. In situ brain perfusion was performed with human [^125I]-p97 or [^125I]-holo-transferrin at a final concentration of 10 nM via a catheter inserted in the right common carotid artery. The volume of distribution (VD) of [^125I]-proteins were obtained in the whole brain homogenate (white bars), in brain capillaries (solid bars) and in brain parenchyma (hatched bars) after isolation of the right hemisphere and capillary depletion. Results were obtained for p97 (n=10) and for holo-transferrin (n=6); FIG. 11c, Transcytosis of p97 across BBCEC monolayers. Transcytosis experiments were performed 37° C. (open circles) and 4° C. (closed circles) with BBCEC monolayers. [^125I]-p97 (1 mg/ml) was added to the upper side of the cell-covered filter. One representative experiment is shown (n=4); FIG. 11d, Preferential transport of p97 across the BBCEC monolayers. Apical-to-basal and basal-to-apical transport of [^125I]-p97 (25 nM) was measured for 2 hrs at 37° C. At the end of the experiment, [^125I]-p97 was assessed in the lower or upper chambers of each well by TCA precipitation (n=4).
FIG. 13 illustrates the transcytosis and accumulation of p97 and transferrin in BBCEC monolayers. FIG. 13a, Transcytosis experiments were performed at 37° C. (solid bars) or 4° C. (white bars). [^125I]-p97 or bovine [^125I]-holo-transferrin (1 mg/ml) was added to the upper side of the cell-covered filter. At the end of the experiment, radiolabelled proteins were measured in the lower chamber of each well by TCA precipitation (n=4). Controls were also performed at 37° C. with denatured [^125I]-p97 or bovine [^125I]-holo-transferrin boiled for 30 min (grey bars) (n=2); FIG. 13b, Biospecific interaction analysis was performed with native or boiled p97 for the indicated times. MAb L235 (5 μg) was immobilized on a sensor chip (SM5) using standard procedures incorporating NHS, EDC and ethanolamine. Native and boiled p97 (5 to 30 min) diluted at 1 mg/ml in Ringer/Hepes was cooled and injected into the BIAcore. The surface plasmon resonance response obtained for native p97 and boiled p97 was plotted (in relative units (RU)) as a function of time; FIG. 13c, The accumulation of both proteins into BBEC cells were also measured. Briefly, after incubation at 37° C. (solid bars) or 4° C. (white bars) with either [^125I]-protein, cells were washed four times with cold PBS. Accumulation of both denatured proteins (grey bars) was also measured at 37° C. Filters were then removed, and the radioactivity associated with the cells was quantified (n=3).
FIG. 14 illustrates the stability of p97 and integrity of the BBCEC monolayers following p97 transcytosis. FIG. 14a, Transcytosis experiments were performed at 37° C. and 4° C. by adding p97 (1 mg/ml) to the upper compartment. At the end of the experiment, 50 μl from each lower chamber was used for SDS-polyacrylamide gel electrophoresis. After electrophoresis, the gels were stained with Coomassie Blue. A standard curve was also made with known amounts of recombinant p97 (0-2 μg); FIG. 14b. The gels were dried and scanned to quantify the amount of intact p97 that crossed the BBCEC monolayers at 37° C. and 4° C. (n=3); FIG. 14c, Effect of p97 on sucrose permeability of BBCE cell monolayers co-cultured with astrocytes. […]

human brain capillaries = assay: Accumulation/uptake of [125I]-p97 in isolated human brain capillaries; assay type: binding
Description: FIG. 5. Accumulation of p97 in human brain capillaries. Accumulation of [^125I]-p97 was measured at 37° C. for 1 h in isolated human brain capillaries (100 μg/assay). The incubation medium contained [^125I]-p97 and a final concentration of 100 nM p97 in Ringer/Hepes solution. The accumulation of [^125I]-p97 was performed in the presence or absence of 5 μm cold-p97, holo-transferrin or lactoferrin. […] The suspension was filtered under vacuum through a […] pore size Millipore filter. The filter was rinsed with 8 ml of stop solution, and the radioactivity was counted. Nonspecific binding of the radioactivity to the capillaries was determined by the addition of the ice-cold stop solution to the capillaries before adding the incubation medium. This value was subtracted from accumulation values obtained following an 1 h incubation. The results were expressed as ng of [^125I]-p97 accumulated per μg of brain capillaries.
FIG. 16 illustrates the identification of a p97 receptor according to ligand specificity. FIG. 16a, Uptake of [^125I]-p97 into human brain capillaries. The uptake of [^125I]-p97 at 100 nM (control) into isolated human brain capillaries was measured for 1 h at 37° C. in the presence of a 50-fold molar excess of unlabelled p97, human holo-transferrin or human lactoferrin. (*[…] Student's t-test (n=5); FIG. 16b, Effect of RAP on [^125I]-p97 transcytosis across BBCEC monolayers. Apical-to-basal transport of [^125I]-p97 was measured in the presence (closed circles) or absence (open circles) of RAP (25 μg/ml) (n=5); FIG. 16c, Inhibition of bovine [^125I]-lactoferrin transport by p97. Transcytosis of bovine [^125I]-lactoferrin (50 nM) was measured in the presence (closed circles) or absence (open circles) of unlabelled p97 (5 μM) at 37° C. (n=3).
A. Isolation of human brain capillaries. Capillaries of the blood-brain barrier were isolated from human brain cortex by a procedure previously described by Dallaire, et al., J. Biol. Chem., 267:22323-22327 (1992) with slight modifications. Human brains were obtained post-mortem. The brain was cleared of meninges, superficial large blood vessels and choroid plexus. All the following procedures were performed at 4° C. The cerebral cortex was homogenized in 5 volumes of Ringer/Hepes solution with a Polytron (Brinkman Instruments, Rexdale, Ontario, Canada). The homogenate was mixed with an equal volume of Dextran T-70 (27 g in 100 ml of Ringer/Hepes). The suspension was centrifuged at 25,000 g for 10 min. The pellet was resuspended in 30 ml of Ringer/Hepes and passed through a 250 μm nylon mesh screen. […]
B. p97 accumulation in human brain capillaries. […] Accumulation of [^125I]-p97 was measured at 37° C. for 1 h in isolated human brain capillaries (100 μg/assay). […]

Sequence of Megalin (P98164 26-4655, species assumed): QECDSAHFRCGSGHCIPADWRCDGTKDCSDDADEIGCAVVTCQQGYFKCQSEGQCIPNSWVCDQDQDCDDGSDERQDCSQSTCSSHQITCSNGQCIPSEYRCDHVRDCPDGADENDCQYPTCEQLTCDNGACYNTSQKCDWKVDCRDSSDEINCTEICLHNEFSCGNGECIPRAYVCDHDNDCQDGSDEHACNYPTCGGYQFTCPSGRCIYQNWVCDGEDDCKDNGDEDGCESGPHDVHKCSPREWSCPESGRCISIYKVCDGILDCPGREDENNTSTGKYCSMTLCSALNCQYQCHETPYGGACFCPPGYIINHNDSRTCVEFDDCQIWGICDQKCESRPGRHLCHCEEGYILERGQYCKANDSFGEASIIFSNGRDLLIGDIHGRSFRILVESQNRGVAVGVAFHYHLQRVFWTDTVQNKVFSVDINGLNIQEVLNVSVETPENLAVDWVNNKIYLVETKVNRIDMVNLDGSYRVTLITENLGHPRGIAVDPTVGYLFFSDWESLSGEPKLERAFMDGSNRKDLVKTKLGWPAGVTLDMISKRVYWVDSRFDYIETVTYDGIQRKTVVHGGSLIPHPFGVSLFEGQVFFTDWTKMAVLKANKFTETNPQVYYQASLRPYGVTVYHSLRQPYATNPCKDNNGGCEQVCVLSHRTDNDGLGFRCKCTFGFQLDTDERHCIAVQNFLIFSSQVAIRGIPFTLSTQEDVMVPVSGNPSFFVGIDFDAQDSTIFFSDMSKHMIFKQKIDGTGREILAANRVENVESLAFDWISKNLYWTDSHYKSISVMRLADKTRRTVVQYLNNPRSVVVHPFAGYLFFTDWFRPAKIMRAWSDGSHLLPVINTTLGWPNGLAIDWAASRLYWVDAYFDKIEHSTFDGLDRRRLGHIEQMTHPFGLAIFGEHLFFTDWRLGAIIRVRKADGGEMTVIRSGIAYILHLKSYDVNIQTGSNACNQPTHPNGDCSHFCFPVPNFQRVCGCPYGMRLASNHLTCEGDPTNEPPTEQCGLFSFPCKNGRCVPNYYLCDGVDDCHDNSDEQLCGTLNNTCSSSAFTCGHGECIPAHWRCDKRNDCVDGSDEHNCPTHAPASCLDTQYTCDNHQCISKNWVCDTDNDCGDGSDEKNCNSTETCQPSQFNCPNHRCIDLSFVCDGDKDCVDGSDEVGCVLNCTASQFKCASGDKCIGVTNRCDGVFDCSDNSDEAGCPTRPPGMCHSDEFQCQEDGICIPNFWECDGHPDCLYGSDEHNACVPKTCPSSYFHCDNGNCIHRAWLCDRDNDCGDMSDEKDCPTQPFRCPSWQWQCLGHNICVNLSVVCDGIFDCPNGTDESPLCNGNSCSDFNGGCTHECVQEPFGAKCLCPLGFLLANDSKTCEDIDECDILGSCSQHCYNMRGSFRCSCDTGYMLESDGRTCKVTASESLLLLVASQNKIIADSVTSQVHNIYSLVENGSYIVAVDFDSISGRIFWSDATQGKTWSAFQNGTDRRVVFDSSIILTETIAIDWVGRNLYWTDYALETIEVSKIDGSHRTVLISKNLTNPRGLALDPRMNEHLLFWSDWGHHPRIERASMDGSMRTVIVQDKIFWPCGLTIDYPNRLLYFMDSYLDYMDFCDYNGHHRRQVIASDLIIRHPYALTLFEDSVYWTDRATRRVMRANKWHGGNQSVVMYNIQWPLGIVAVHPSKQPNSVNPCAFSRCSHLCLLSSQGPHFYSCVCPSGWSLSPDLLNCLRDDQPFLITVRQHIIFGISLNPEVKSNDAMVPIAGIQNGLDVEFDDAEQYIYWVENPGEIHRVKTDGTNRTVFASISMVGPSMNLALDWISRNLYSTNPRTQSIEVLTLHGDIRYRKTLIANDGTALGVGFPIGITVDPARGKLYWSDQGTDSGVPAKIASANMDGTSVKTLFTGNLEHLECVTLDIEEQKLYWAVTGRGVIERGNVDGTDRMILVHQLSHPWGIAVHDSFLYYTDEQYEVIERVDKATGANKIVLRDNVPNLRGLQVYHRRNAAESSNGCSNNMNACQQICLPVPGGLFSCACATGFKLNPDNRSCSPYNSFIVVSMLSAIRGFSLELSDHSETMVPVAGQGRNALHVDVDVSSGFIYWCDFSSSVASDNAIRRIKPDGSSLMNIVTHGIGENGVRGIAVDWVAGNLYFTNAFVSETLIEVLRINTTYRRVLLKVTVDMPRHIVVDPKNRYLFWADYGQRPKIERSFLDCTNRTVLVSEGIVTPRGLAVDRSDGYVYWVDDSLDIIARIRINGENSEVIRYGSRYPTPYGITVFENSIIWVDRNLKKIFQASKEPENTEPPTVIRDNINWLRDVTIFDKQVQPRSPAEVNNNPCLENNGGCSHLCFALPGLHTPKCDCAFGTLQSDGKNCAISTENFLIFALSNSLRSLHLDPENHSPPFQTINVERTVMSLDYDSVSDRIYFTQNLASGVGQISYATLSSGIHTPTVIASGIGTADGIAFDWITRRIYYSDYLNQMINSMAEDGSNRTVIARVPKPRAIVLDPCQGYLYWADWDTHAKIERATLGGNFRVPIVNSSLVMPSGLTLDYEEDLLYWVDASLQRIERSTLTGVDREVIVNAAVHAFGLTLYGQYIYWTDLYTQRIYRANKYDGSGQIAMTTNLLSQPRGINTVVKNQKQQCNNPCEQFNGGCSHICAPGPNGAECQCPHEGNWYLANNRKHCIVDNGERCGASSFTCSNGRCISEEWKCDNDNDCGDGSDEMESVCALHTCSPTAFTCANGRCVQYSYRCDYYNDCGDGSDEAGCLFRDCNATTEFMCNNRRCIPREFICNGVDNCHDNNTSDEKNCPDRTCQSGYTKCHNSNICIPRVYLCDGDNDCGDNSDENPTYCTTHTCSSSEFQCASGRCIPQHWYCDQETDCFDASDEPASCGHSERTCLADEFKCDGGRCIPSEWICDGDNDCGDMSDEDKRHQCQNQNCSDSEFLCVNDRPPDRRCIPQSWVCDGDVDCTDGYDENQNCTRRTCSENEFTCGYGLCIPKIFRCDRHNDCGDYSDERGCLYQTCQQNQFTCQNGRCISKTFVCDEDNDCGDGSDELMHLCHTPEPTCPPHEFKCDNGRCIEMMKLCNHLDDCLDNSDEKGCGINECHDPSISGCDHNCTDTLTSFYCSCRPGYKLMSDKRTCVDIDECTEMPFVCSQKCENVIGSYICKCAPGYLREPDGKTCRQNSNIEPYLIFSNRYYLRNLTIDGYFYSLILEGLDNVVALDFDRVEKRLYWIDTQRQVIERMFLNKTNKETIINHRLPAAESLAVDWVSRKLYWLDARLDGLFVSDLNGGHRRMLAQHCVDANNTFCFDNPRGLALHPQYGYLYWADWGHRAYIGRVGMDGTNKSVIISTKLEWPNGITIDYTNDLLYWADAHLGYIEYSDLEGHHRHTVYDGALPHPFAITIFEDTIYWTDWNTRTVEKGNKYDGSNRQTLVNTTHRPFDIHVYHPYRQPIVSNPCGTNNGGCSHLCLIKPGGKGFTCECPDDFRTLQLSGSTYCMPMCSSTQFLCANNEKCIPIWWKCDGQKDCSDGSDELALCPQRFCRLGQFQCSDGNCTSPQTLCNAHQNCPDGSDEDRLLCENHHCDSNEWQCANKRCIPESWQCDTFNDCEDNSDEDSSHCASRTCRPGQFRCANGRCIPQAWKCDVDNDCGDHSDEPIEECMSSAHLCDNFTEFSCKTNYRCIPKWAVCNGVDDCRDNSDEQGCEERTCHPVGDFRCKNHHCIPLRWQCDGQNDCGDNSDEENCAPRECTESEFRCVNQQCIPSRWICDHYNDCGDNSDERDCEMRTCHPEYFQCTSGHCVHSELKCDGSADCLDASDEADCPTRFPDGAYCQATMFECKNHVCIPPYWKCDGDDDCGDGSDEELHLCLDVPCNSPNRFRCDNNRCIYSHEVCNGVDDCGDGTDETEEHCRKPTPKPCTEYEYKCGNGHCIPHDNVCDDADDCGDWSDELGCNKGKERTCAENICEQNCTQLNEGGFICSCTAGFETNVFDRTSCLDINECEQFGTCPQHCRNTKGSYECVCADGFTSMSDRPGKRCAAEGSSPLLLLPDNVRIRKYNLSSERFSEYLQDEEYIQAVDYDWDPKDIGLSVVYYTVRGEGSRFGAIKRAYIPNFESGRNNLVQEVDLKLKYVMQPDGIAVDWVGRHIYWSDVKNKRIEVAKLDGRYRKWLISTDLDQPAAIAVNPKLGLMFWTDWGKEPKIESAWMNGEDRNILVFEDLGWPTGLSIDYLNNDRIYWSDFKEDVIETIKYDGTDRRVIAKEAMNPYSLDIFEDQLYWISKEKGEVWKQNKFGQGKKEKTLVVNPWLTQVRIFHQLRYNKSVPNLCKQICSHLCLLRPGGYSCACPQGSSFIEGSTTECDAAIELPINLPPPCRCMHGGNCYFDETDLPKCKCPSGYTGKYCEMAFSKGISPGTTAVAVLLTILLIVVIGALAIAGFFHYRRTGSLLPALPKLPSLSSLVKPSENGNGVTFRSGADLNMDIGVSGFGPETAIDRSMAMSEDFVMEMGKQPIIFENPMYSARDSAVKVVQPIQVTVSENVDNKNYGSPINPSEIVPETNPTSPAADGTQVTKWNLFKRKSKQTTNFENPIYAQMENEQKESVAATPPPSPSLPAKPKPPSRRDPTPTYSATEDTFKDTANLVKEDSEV

Substance	Binding to LRP (LRP)	Binding to Megalin (Megalin)	other results
Activated α2-macroglobulin: activated α2-macroglobulin	Yes	No	–
Albumin	–	Yes	–
ApoB100: apolipoprotein B 100	–	Yes	Binding to LDL-R (LDL-R): Yes
ApoE: Apolipoprotein E	Yes	Yes	Binding to LR11 (LR11): Yes; Binding to ER-2 (ER-2): Yes; Binding to VLDL-R (VLDL-R): Yes
ApoJ/clusterin: ApoJ/clusterin	–	Yes	–
Gentamycin [reference compound]	Yes	Yes	–
Plasminogen: plasminogen	–	Yes	–
Polymixin B [reference compound]	Yes	Yes	–
Pseudomonas Exotoxin A	Yes	No	–
Thrombospondin-1: thrombospondin-1	Yes	–	Binding to VLDL-R (VLDL-R): Yes
Thyroglobulin: thyroglobulin	–	Yes	Binding to LR11 (LR11): Yes; Binding to ER-2 (ER-2): Yes
Tissue factor inhibitor: tissue factor inhibitor	Yes	–	–
human holo-transferrin: human holo-transferrin	–	–	Reduction of apical-to-basal transport of [125I]-p97 (BBCEC monolayers; 200-fold molar excess of competitor, [125I]-p97 25 nM (FIG. 15a, 15b)): had no impact; Inhibition of the uptake of [125I]-p97 into isolated human brain capillaries (human brain capillaries; 50-fold molar excess, [125I]-p97 100 nM, 1 h at 37° C. (FIG. 16a)): had no effect
tPA: tissue type plasminogen activator	Yes	Yes	–
α1-chymotrypsin/cathepsin G: protease/inhibitor complex	No	Yes	–
β-amyloid peptide 1-40: β-amyloid peptide 1-40 [reference compound]	–	–	Effect on transcytosis of 125I-p97 (BBCEC monolayers; competitor 5 micromolar (FIG. 10a, 10b)): failed to slow or reduce; Competition with p97 for receptor binding in human brain capillaries, repeat experiment (human brain capillaries; performed identically to FIG. 5 (FIG. 6)): competes with p97 for receptor binding
βAPP: β-amyloid precursor protein	Yes	–	Binding to VLDL-R (VLDL-R): Yes
